{"source": "patent US7164008B2", "about": "“Isolated complexes of endotoxin and MD-2” (priority 2003, dated 2007)", "target": "T1, TLR4 (Homo sapiens, UniProt O00206+Q9Y6Y9)", "T1 construct": "host or cells: HEK293 stably transfected with TLR4 (HEK/TLR4)", "T1 sequence (O00206 24-839, one chain of several)": "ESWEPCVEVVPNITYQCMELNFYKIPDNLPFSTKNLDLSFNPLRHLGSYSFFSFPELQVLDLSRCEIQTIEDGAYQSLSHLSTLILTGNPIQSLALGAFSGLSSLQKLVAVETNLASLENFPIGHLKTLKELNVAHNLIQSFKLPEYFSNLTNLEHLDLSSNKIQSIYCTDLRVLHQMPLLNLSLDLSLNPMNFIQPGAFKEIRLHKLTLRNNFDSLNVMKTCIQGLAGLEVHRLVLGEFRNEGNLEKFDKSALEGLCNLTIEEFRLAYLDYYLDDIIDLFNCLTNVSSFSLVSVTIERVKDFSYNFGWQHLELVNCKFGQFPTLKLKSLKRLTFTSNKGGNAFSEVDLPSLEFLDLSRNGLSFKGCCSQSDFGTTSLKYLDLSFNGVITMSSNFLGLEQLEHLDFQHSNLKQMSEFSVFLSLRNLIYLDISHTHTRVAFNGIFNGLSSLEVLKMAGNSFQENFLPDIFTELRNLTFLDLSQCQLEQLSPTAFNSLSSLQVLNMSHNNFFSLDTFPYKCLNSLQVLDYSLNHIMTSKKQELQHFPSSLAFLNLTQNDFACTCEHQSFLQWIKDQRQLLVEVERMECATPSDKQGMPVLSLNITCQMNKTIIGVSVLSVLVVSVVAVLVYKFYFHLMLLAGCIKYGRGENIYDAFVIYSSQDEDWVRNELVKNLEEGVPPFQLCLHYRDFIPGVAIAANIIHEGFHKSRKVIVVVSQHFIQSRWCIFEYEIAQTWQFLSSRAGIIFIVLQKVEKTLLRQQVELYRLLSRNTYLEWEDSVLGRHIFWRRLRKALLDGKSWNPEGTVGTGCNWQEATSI", "assay": "Cell association of [^3H]-LOS forms with HEK/TLR4 cells (liquid scintillation)", "type": "cell-based", "conditions": "[^3H]-LOS-MD-2 0.75 ng/ml, HEK/TLR4 overnight", "protocol": "FIG. 3 depicts delivery of [^3H]-LOS-MD-2 but not [^3H]-LOSagg or [^3H]-LOS-sCD14 to HEK/TLR4. HEK (□) or HEK/TLR4 (▪) cells were incubated with [^3H]-LOS (0.75 ng/ml) in the form of LOSagg, LOS-sCD14, or LOS-MD-2. After overnight incubation at 37° C., cells were washed and lysed as described in Methods. The amount of [^3H]-LOS associated with the cells was measured by liquid scintillation spectroscopy. Results are from one experiment in duplicate, representative of three similar experiments.\nFIG. 4 depicts the effects of added MD-2 on activation of HEK/TLR4 by [^3H]-LOS-MD-2 and delivery of [^3H]-LOS-MD-2 to HEK/TLR4. […] After overnight incubation, extracellular accumulation of IL-8 was measured. […] Column fractions were analyzed for [^14C]-LOS by liquid scintillation spectroscopy. […] The amount of radioactivity associated with the cells was determined by liquid scintillation spectroscopy. No radioactivity was associated with parental cells.\nHEK or HEK/TLR4 cells were grown to confluency in 6 well plates, washed twice with warm PBS, and [^3H]-LOS aggregates or [^3H]-LOS-protein complexes+/−indicated supplements were incubated overnight at 37° C., 5% CO2, and 95% humidity in DMEM, 0.1% HSA with the supplements indicated in the legends to FIGS. 3 and 4. […] The amount of radioactivity associated with the cells was determined by liquid scintillation spectroscopy. Total recovery of radioactivity was >90%."}
{"molecule": "wt MD-2: soluble polyhistidine-tagged recombinant wild-type MD-2 in conditioned insect cell culture medium (protein) QKQYWVCNSSDASISYTYCDKMQYPISINVNPCIELKRSKGLLHIFYIPRRDLKQLYFNLYITVNTMNLPKRKEVICRGSDDDYSFCRALKGETVNTTISFSFKGIKFSKGKYKCVVEAISGSPEEMLFCLEFVILHQPNSNHHHHHH", "values": [{"measurement": "effect of excess MD-2 on TLR4-dependent cell association of [^3H]-LOS-MD-2", "result": "blocked"}]}
